The target of assay [1] is cynomolgus Gal3 (cynomolgus). Nature of the assay: method not stated (FIG. 20).
Assay [2] deals with Recombinant human Gal3 (rhGal3) (TrueBinding, #QC200361) (human) (UniProt P17931). Kind of assay: cell-based or functional assay.

In general, Kd refers to the constant that tells how readily two partners part at equilibrium. A lower Kd goes with tighter binding.
Wherever % inhibition of CD62L shedding is given: test concentration or dose not given here.
Wherever % inhibition of IL-6 secretion is given: test concentration or dose not given here.
Wherever % inhibition of TNFα secretion is given: test concentration or dose not given here.

Sequence of Recombinant human Gal3 (rhGal3) (TrueBinding, #QC200361) (human) (P17931 2-250 limits assumed): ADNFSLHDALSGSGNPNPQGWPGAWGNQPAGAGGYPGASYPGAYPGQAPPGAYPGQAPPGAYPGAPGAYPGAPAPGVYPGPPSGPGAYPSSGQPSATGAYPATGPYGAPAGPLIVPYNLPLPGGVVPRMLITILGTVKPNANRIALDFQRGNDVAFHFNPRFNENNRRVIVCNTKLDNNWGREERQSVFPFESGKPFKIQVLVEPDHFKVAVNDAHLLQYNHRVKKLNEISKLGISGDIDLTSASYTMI
Sequence of cynomolgus Gal3 (cynomolgus) (chain, as listed by the source): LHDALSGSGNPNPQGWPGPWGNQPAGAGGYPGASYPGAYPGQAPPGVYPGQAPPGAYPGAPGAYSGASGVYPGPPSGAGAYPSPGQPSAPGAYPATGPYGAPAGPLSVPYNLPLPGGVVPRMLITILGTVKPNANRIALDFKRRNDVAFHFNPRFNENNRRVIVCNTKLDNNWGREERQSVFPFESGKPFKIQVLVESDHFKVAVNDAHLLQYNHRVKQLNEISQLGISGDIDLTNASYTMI

B1: TB006 (antibody, human IgG4 S228P, kappa, V domains shown)
VH: QVQLVQSGAEVKKPGASVKVSCKASGYSFTNYYMHWVRQAPGQRLEWMGWIYPGSGNTNYNEKFQGRVTITADTSASTAYMELSSLRSEDTAVYYCSTAPGGFDVWGQGTTVTVSS
VL: DIVMTQTPLSLSVTPGQPASISCKSSKSLLHSDGITYLYWYLQKPGQSPQLLIYRMSNLASGVPDRFSGSGSGTDFTLKISRVEAEDVGVYYCAQMLEFPLTFGQGTKLEIKR
Turning to B1, the Kd in assay [1] was 5.1 nM.

B2: 847.14H4 (antibody, from a related filing, V domains shown)
VH: QIQLVQSGPELTKPGETVKISCKASGYTFTDYGMNWVRQAPGETLKWMGWINTYTGEPTYADDFKGRFAFSLESSASTAYLQINNLKNEDVATYFCARYPMDYWGQGTSVTVSS
VL: QAVVTQESALTTSPGETVTLTCRSSTGAVTTSNYANWVQEKPDHLFTGLIGGTNNRAPGVPARFSGSLIGDKAALTITGAQTEDEAIYFCALWYSNHLVFGGGTKLTVL
In the case of B2, in assay [2], the % inhibition of CD62L shedding amounted to 34.4%, the % inhibition of IL-6 secretion was -71.4% and the % inhibition of TNFα secretion is -181%.

B3: F846C.1H5 (antibody, V domains shown)
VH: EVQLLESGGGLVKPGGSLKLSCAASGFTFSSYAMSWVRQTPEKRLEWVASISSGGDTYYPDSVKGRFTISRDNARNILYLQMSSLRSEDTAMYYCASYGNSLFDYWGQGTTLTVSS
VL: DVVMTQTPLSLPVSLGDQASISCRSSQSLVHNSGNTYLHWYLQRPGQSPNLLIYKVSNRFSGVPDRFSGSGSGTDFTLKISRVAAEDLGVYFCSQSTHVPPTFGGGTKLEIKR
On to B3, for which, in assay [2], the % inhibition of CD62L shedding is 100%, the % inhibition of IL-6 secretion was -49.7% and the % inhibition of TNFα secretion was -162%.

B4: 14D11.2D2 (antibody, from another filing, V domains shown)
VH: QVQLKESGPGLVAPSQSLSITCTISGFSLSSYGVHWVRQPPGKGLEWLVVIWSDGSTTYNSTLKSRLSISKDNSKSQVFLKMNSLQTDDTAMYYCARHISNYGTMDYWGQGTSVTVS
VL: DIQMTQTTSSLSASLGDRVTISCRASQDIRNYLNWYQQKPDGSIKLLIYYTSRLHSGVPSRFSGSGSGTDYSLTIRNLEQEDIATYFCQHFNTLPPTFGGGTKLEIK
As for B4, in assay [2], the % inhibition of CD62L shedding stood at 86.2%.

The values are drawn from patent publication US20250243282A1.
